In test [1] the target is recombinant human anti-TNP IgG2 (chimeric, TIB142 VH with human IgG2 constant region) (human) [IgG part: P01859]. Description: ELISA; anti-TNP IgG on TNP-BSA, biotinylated dimer; EC50 as IgG concentration (FIG. 3 D, L). (In general: In an ELISA, binding on a coated surface is turned into a signal by an enzyme label.)
Test [2] addresses rituximab. Description: flow cytometry; CD19 B cells in PBMC opsonised with 2.5 µg/ml rituximab, dimer 0.2 µg/ml (FIG. 14E). On the technique in general: Flow cytometry measures light scatter and fluorescence of single cells or particles in a stream.
For test [3], the target named is obinutuzumab (GAZYVA). Description: ELISA; mAb at 1000 and 315 ng/ml captured, ratio of A450 obinutuzumab/rituximab (FIG. 8H).
Test [4] has as its target obinutuzumab (GAZYVA). As to the kind of experiment: ELISA; mAb captured by F(ab')2 anti-human F(ab')2, biotinylated dimer, streptavidin-HRP (FIG. 8C).
In test [5] the target is rituximab. Description: flow cytometry; CD19 B cells in PBMC opsonised with 2.5 µg/ml rituximab, dimer 0.2 µg/ml (FIG. 14F).

Among the data in patent US20180284130A1 are EC50, median fluorescence intensity (MFI) and binding preference over rituximab values, retold here.

One may read the EC50 as the midpoint of the concentration-response curve.

“Human rsFcγRIIa H131 dimer (from UniProt P12318 34-215) (receptor)”: in test [1], the EC50 worked out at 0.3 µg/mL. In addition, in the test with rituximab [2], the median fluorescence intensity (MFI) was 4000 MFI. With Human rsFcγRIIIa F158 dimer (receptor), the values for the binding preference over rituximab in the test with obinutuzumab (GAZYVA) [3] and in the test with obinutuzumab (GAZYVA) [4] were 10 fold and 20 fold, respectively. On to Human rsFcγRIIIa V158 dimer (receptor), for which the median fluorescence intensity (MFI) in the test with rituximab [5] stood at 11000 MFI.
